From patent US20220282217A1 (BIONTECH US, published 2022) come the findings set out here.

Broadly, the IC50 is the concentration that inhibits the measured activity by half.

Experiment [1] deals with HLA-B08.01 class I MHC molecule (prepared complex) (human). Description: dissociation of peptide-MHC-I complex at 37 C, 125I-labelled b2m, scintillation. On the procedure: Briefly, synthetic genes encoding biotinylated MHC-I heavy and light chains are expressed in E. coli and purified from inclusion bodies using standard methods. […] These reactions are carried out in streptavidin coated microplates to bind the biotinylated MHC-I heavy chains to the surface and allow measurement of radiolabeled light chain to monitor complex formation. Dissociation is initiated by addition of higher concentrations of unlabeled light-chain and incubation at 37° C. Stability is defined as the length of time in hours it takes for half of the complexes to dissociate, as measured by scintillation counts.

The target of experiment [2] is T1, HLA-A03.01 (human).
T1 construct: Purified class I MHC
Description: pMHC-I dissociation half-life, 125I-b2m. The procedure, abridged:
(§1)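 Biotinylated MHC-I heavy chain made in E. coli, captured on streptavidin plates and complexed with peptide and radiolabelled light chain. Dissociation started with excess unlabelled light chain at 37 °C. Stability is the half-life in hours from scintillation counts.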

In experiment [3] the target is T2, HLA-A11.01 (human).
T2 construct: Purified class I MHC
Put plainly: pMHC-I dissociation half-life, 125I-b2m. The procedure, abridged: as §1

For experiment [4], the target named is HLA-A02.01 (human). Put plainly: pMHC-I complex dissociation at 37 C, 125I-b2m, half-life. The procedure, abridged: as §1
Experiment [5] addresses T3, HLA-B08.01 (human).
T3 construct: As for HLA-A02.01
The description is as above. The procedure, abridged:
as §1

Experiment [6] concerns the target HLA-A02.01 (human). Put plainly: competition vs radiolabeled reference peptide on purified MHC I, gel filtration. On the procedure: (§2) Peptides were incubated at varying concentrations with these complexes for 2 days, and the amount of remaining radiolabeled peptide bound to […] was measured using size exclusion gel-filtration.
In general terms: In gel filtration, larger molecules generally elute earlier.

For experiment [7], the target named is T3, HLA-B08.01. The experiment is described as above. On the procedure:
as §2

The target in experiment [8] is T1, HLA-A03.01. Put plainly: competition with radiolabeled reference peptide, purified MHC I. On the procedure: as §2
Experiment [9] has as its target T2, HLA-A11.01. The experiment is described as above. On the procedure:
as §2

The next experiment concerns the target T4, HLA-A01.01 (human).
T4 construct: As for HLA-A02.01
Put plainly: competition vs radiolabeled reference peptide on purified MHC I, gel filtration. On the procedure: as §2

The target of experiment [10] is T5, HLA-B08.01 (human).
T5 construct: Purified class I MHC
Put plainly: pMHC-I dissociation half-life, 125I-b2m. The procedure, abridged:
as §1

Experiment [11] concerns the target T6, HLA-B07.02 (human).
T6 construct: Purified class I MHC
Description: pMHC-I dissociation half-life, 125I-b2m. The procedure, abridged:
as §1

Experiment [12] deals with T6, HLA-B07.02. Description: competition with radiolabeled reference peptide, purified MHC I. On the procedure: as §2
Experiment [13] has as its target T7, HLA-A03.01 (human).
T7 construct: As for HLA-A02.01
Put plainly: competition vs radiolabeled reference peptide on purified MHC I, gel filtration. On the procedure: as §2

In experiment [14] the target is T8, HLA-A02.01 (human).
T8 construct: Purified class I MHC
Put plainly: pMHC-I dissociation half-life, 125I-b2m. The procedure, abridged:
as §1

B1: EGFR_T790M peptide MQLMPFGCL (peptide)
peptide: MQLMPFGCL
notes: synthetic peptide holding the EGFR T790M mutation
Take B1: in experiment [1], the “Stability (half-life (hr.))” value amounted to 0 h.
For the molecule VVGACGVGK (also called KRAS, G12C), the “Measured stability” value came to 5 h with HLA-A03.01 [2] and 10 h with HLA-A11.01 [3].
Take VVGADGVGK (also called KRAS, G12D): the “Measured stability” value with HLA-A11.01 [3] was 3.4 h.
On to LATEKSRWSG (also called BRAF, V600E), for which the “Stability (T1/2 (h))” value in the experiment with HLA-A02.01 [4] and in the experiment with HLA-B08.01 [5] was 0 h in each case. Moreover, the IC50 was determined as 23300 nM with HLA-A02.01 [6] and 46600 nM with HLA-B08.01 [7].
As for SLKKVPALK (also called SMAP1(-1)), the half-inhibitory concentration (IC50) with HLA-A03.01 [8] was 4.4 nM; with HLA-A11.01 [9], 129 nM.
Consider AMTTSSSQK (also called TGFBR2(-1)), for which the concentration for half-maximal inhibition (IC50) with HLA-A03.01 [8] was found to be 8.3 nM; in the experiment with HLA-A11.01 [9], 162 nM.
Molecule LSFLSSWDY (also called C15ORF40(+1)) registered an IC50 with HLA-A01.01 of 52.9 nM.

B2: EGFR_T790M peptide VQLIMQLMPF (peptide)
peptide: VQLIMQLMPF
notes: as for B1
Take B2: the “Stability (half-life (hr.))” value in [1] amounted to 0 h.
For the molecule WLHKRGKYI (also called AKT1, E17K), the “Stability (T1/2 (h))” value with HLA-B08.01 [5] was 1.3 h. The IC50 in the experiment with HLA-B08.01 [7] came to 417 nM.
With LATEKSRWS (also called BRAF, V600E), the “Stability (T1/2 (h))” value in the experiment with HLA-A02.01 [4] and with HLA-B08.01 [5] was 0 h each time. In addition, the half-maximal inhibitory concentration (IC50) came to 61000 nM in the experiment with HLA-A02.01 [6] and 37000 nM in the experiment with HLA-B08.01 [7].
Turning to SAMTTSSSQK (also called TGFBR2(-1)), the IC50 with HLA-A03.01 [8] came out at 15.7 nM; with HLA-A11.01 [9], 15.8 nM.
On to KISNWSLKK (also called SMAP1(-1)), for which the IC50 was 8.8 nM with HLA-A03.01 [8] and 9.8 nM with HLA-A11.01 [9].
With FLPSTLKSL (also called ESR1, S463P), the “Stability (T1/2 (h))” value with HLA-B08.01 [5] was 0 h. Besides, in the experiment with HLA-B08.01 [7], the IC50 was 1970 nM.
Turning to HPRPAPASA (also called TP53, SHST), the “Stability (T1/2 (h))” value was determined as 0 h with HLA-B08.01 [10] and 4.9 h in the experiment with HLA-B07.02 [11]. Moreover, the half-maximal inhibitory concentration (IC50) in the experiment with HLA-B07.02 [12] stood at 11 nM.
As to LPSQRRNHWM (also called TP53, CSES), the figures for the “Stability (T1/2 (h))” value with HLA-B08.01 [10] and in the experiment with HLA-B07.02 [11] were 0.7 h and 6.5 h, respectively. This molecule also registered a concentration for half-maximal inhibition (IC50) in the experiment with HLA-B07.02 [12] of 10 nM.

B3: EGFR_T790M peptide MQLMPFGCLL (peptide)
peptide: MQLMPFGCLL
notes: as for B1
As for B3, the “Stability (half-life (hr.))” value in [1] was 0 h.

B4: EGFR_T790M peptide QLIMQLMPF (peptide)
peptide: QLIMQLMPF
notes: as for B1
For B4, the “Stability (half-life (hr.))” value in [1] was 0 h.

B5: EGFR_T790M peptide IMQLMPFGCL (peptide)
peptide: IMQLMPFGCL
notes: as for B1
On to B5, for which the “Stability (half-life (hr.))” value in experiment [1] was found to be 0 h.
In the case of YMANGSLLNY (also called BTK, C481S), the values for the IC50 in the experiment with HLA-A03.01 [13] and in the experiment with HLA-A01.01 were 95.9 nM and 13.2 nM, respectively.
As for RLSSCVPVA (also called TGFBR2(-1)), the “Stability (T1/2 (h))” value with HLA-A02.01 [14] was 18.7 h; with HLA-A03.01 [2], 0 h.
Molecule MSVCFFFFCY (also called CNOT1(-1)) showed an IC50 with HLA-A01.01 of 4370 nM.
CLSFLSSWDY (also called C15ORF40(+1)): the values for the IC50 in the experiment with HLA-A03.01 [13] and with HLA-A01.01 were 2710 nM and 987 nM, respectively.
